We go through five sequences from the supplement of paper PMC5998384.

The test system of data set [1] is HeLa Kyoto. The data set is described as follows: solubility in G1/S (NP-40 vs SDS abundance) (log2 ratio); higher = more soluble. To be noted: cell cycle stage: G1/S.
Data set [2] relates to HeLa Kyoto. The data set is described as follows: melting temperature (median over replicates), in situ; higher = more thermally stable.
The subject of data set [3] is HeLa Kyoto. The data set is described as follows: solubility change mitosis vs G1/S (difference of NP-40 vs SDS log2 ratios) (log2 ratio difference); higher = more soluble in mitosis.
Data set [4] deals with HeLa Kyoto. The data set is described as follows: thermal stability score vs G1/S (z-score of summed log2 fold changes over temperatures); higher = more thermally stable than in G1/S.
[5] abbreviates: cell cycle stage: early G1 (4.5 h after nocodazole release).
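Wherever melting temperature (median over replicates), in situ is given: HeLa Kyoto cells synchronized by double thymidine or nocodazole block, proteins quantified by TMT10plex mass spectrometry, three independent biological replicates.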
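Wherever solubility change mitosis vs G1/S (difference of NP-40 vs SDS log2 ratios) is given: synchronized HeLa Kyoto cells (double thymidine block for G1/S, nocodazole release for mitosis), protein amounts in NP-40 versus SDS lysates quantified by mass spectrometry, three biological replicates.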
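Wherever solubility in G1/S (NP-40 vs SDS abundance) is given: HeLa Kyoto cells arrested at G1/S by double thymidine block, proteins quantified by TMT10plex mass spectrometry in mild NP-40 versus SDS extracts, three biological replicates.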
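Wherever thermal stability score vs G1/S (z-score of summed log2 fold changes over temperatures) is given: synchronized HeLa Kyoto cells, proteins quantified by TMT10plex mass spectrometry, three biological replicates, mitosis taken 0.5 h after nocodazole release, G1/S directly after double thymidine block.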

“MSLLQSALDFLAGPGSLGGASGRDQSDFVGQTVELGELRLRVRRVLAEGGFAFVYEAQDVGSGREYALKRLLSNEEEKNRAIIQEVCFMKKLSGHPNIVQFCSAASIGKEESDTGQAEFLLLTELCKGQLVEFLKKMESRGPLSCDTVLKIFYQTCRAVQHMHRQKPPIIHRDLKVENLLLSNQGTIKLCDFGSATTISHYPDYSWSAQRRALVEEEITRNTTPMYRTPEIIDLYSNFPIGEKQDIWALGCILYLLCFRQHPFEDGAKLRIVNGKYSIPPHDTQYTVFHSLIRAMLQVNPEERLSIAEVVHQLQEIAAARNVNPKSPITELLEQNGGYGSATLSRGPPPPVGPAGSGYSGGLALAEYDQPYGGFLDILRGGTERLFTNLKDTSSKVIQSVANYAKGDLDISYITSRIAVMSFPAEGVESALKNNIEDVRLFLDSKHPGHYAVYNLSPRTYRPSRFHNRVSECGWAARRAPHLHTLYNICRNMHAWLRQDHKNVCVVHCMDGRAASAVAVCSFLCFCRLFSTAEAAVYMFSMKRCPPGIWPSHKRYIEYMCDMVAEEPITPHSKPILVRAVVMTPVPLFSKQRSGCRPFCEVYVGDERVASTSQEYDKMRDFKIEDGKAVIPLGVTVQGDVLIVIYHARSTLGGRLQAKMASMKMFQIQFHTGFVPRNATTVKFAKYDLDACDIQEKYPDLFQVNLEVEVEPRDRPSREAPPWENSSMRGLNPKILFSSREEQQDILSKFGKPELPRQPGSTAQYDAGAGSPEAEPTDSDSPPSSSADASRFLHTLDWQEEKEAETGAENASSKESESALMEDRDESEVSDEGGSPISSEGQEPRADPEPPGLAAGLVQQDLVFEVETPAVLPEPVPQEDGVDLLGLHSEVGAGPAVPPQACKAPSSNTDLLSCLLGPPEAASQGPPEDLLSEDPLLLASPAPPLSVQSTPRGGPPAAADPFGPLLPSSGNNSQPCSNPDLFGEFLNSDSVTVPPSFPSAHSAPPPSCSADFLHLGDLPGEPSKMTASSSNPDLLGGWAAWTETAASAVAPTPATEGPLFSPGGQPAPCGSQASWTKSQNPDPFADLGDLSSGLQGSPAGFPPGGFIPKTATTPKGSSSWQTSRPPAQGASWPPQAKPPPKACTQPRPNYASNFSVIGAREERGVRAPSFAQKPKVSENDFEDLLSNQGFSSRSDKKGPKTIAEMRKQDLAKDTDPLKLKLLDWIEGKERNIRALLSTLHTVLWDGESRWTPVGMADLVAPEQVKKHYRRAVLAVHPDKAAGQPYEQHAKMIFMELNDAWSEFENQGSRPLF”: in the data set on HeLa Kyoto [1], the “solubility in G1/S (log2)” value is -0.0682. In addition, the melting temperature in the data set with HeLa Kyoto [2] (cell cycle stage: G1/S) came to 48.6 °C; in the data set with HeLa Kyoto [2] (cell cycle stage: mitosis), 48.9 °C. Moreover, the “solubility change mitosis (log2)” value in the data set with HeLa Kyoto [3] is -0.151. For the same sequence, the thermal stability score in the data set on HeLa Kyoto [4] (setting [5]) was determined as 0.76; with HeLa Kyoto [4] (cell cycle stage: mitosis), 1.62.

Turning to “MSLRKQTPSDFLKQIIGRPVVVKLNSGVDYRGVLACLDGYMNIALEQTEEYVNGQLKNKYGDAFIRGNNVLYISTQKRRM [LSM6]”, the “solubility in G1/S (log2)” value in the data set with HeLa Kyoto [1] was determined as 0.0787. For the same sequence, the melting temperature amounted to 57.7 °C in the data set with HeLa Kyoto [2] (cell cycle stage: G1/S) and 54 °C in the data set on HeLa Kyoto [2] (cell cycle stage: mitosis). For the same sequence, the “solubility change mitosis (log2)” value in the data set with HeLa Kyoto [3] came out at 0.276. The thermal stability score is -1.66 with HeLa Kyoto [4] (setting [5]) and -2.63 with HeLa Kyoto [4] (cell cycle stage: mitosis).

Consider “MSLSENSVFAYESSVHSTNVLLSLNDQRKKDVLCDVTIFVEGQRFRAHRSVLAACSSYFHSRIVGQADGELNITLPEEVTVKGFEPLIQFAYTAKLILSKENVDEVCKCVEFLSVHNIEESCFQFLKFKFLDSTADQQECPRKKCFSSHCQKTDLKLSLLDQRDLETDEVEEFLENKNVQTPQCKLRRYQGNAKASPPLQDSASQTYESMCLEKDAALALPSLCPKYRKFQKAFGTDRVRTGESSVKDIHASVQPNERSENECLGGVPECRDLQVMLKCDESKLAMEPEETKKDPASQCPTEKSEVTPFPHNSSIDPHGLYSLSLLHTYDQYGDLNFAGMQNTTVLTEKPLSGTDVQEKTFGESQDLPLKSDLGTREDSSVASSDRSSVEREVAEHLAKGFWSDICSTDTPCQMQLSPAVAKDGSEQISQKRSECPWLGIRISESPEPGQRTFTTLSSVNCPFISTLSTEGCSSNLEIGNDDYVSEPQQEPCPYACVISLGDDSETDTEGDSESCSAREQECEVKLPFNAQRIISLSRNDFQSLLKMHKLTPEQLDCIHDIRRRSKNRIAAQRCRKRKLDCIQNLESEIEKLQSEKESLLKERDHILSTLGETKQNLTGLCQKVCKEAALSQEQIQILAKYSAADCPLSFLISEKDKSTPDGELALPSIFSLSDRPPAVLPPCARGNSEPGYARGQESQQMSTATSEQAGPAEQCRQSGGISDFCQQMTDKCTTDE [BACH1]”, for which the “solubility in G1/S (log2)” value in the data set on HeLa Kyoto [1] is -0.0438. Besides, the values for the melting temperature in the data set on HeLa Kyoto [2] (cell cycle stage: G1/S) and with HeLa Kyoto [2] (cell cycle stage: mitosis) were 53.6 °C and 53.1 °C, respectively. For the same sequence, the “solubility change mitosis (log2)” value in the data set with HeLa Kyoto [3] was 0.0971. Further, the thermal stability score in the data set on HeLa Kyoto [4] (setting [5]) is -0.135; in the data set with HeLa Kyoto [4] (cell cycle stage: mitosis), -2.84.

As for “MSLSRSEEMHRLTENVYKTIMEQFNPSLRNFIAMGKNYEKALAGVTYAAKGYFDALVKMGELASESQGSKELGDVLFQMAEVHRQIQNQLEEMLKSFHNELLTQLEQKVELDSRYLSAALKKYQTEQRSKGDALDKCQAELKKLRKKSQGSKNPQKYSDKELQYIDAISNKQGELENYVSDGYKTALTEERRRFCFLVEKQCAVAKNSAAYHSKGKELLAQKLPLWQQACADPSKIPERAVQLMQQVASNGATLPSALSASKSNLVISDPIPGAKPLPVPPELAPFVGRMSAQESTPIMNGVTGPDGEDYSPWADRKAAQPKSLSPPQSQSKLSDSYSNTLPVRKSVTPKNSYATTENKTLPRSSSMAAGLERNGRMRVKAIFSHAAGDNSTLLSFKEGDLITLLVPEARDGWHYGESEKTKMRGWFPFSYTRVLDSDGSDRLHMSLQQGKSSSTGNLLDKDDLAIPPPDYGAASRAFPAQTASGFKQRPYSVAVPAFSQGLDDYGARSMSRNPFAHVQLKPTVTNDRCDLSAQGPEGREHGDGSARTLAGR [BAIAP2]”, the “solubility in G1/S (log2)” value in the data set with HeLa Kyoto [1] was determined as 0.466. Besides, the melting temperature came out at 50.6 °C with HeLa Kyoto [2] (cell cycle stage: G1/S) and 51.2 °C in the data set on HeLa Kyoto [2] (cell cycle stage: mitosis). The “solubility change mitosis (log2)” value in the data set on HeLa Kyoto [3] came out at 0.0657. The thermal stability score in the data set with HeLa Kyoto [4] (setting [5]) came out at 0.524; in the data set with HeLa Kyoto [4] (cell cycle stage: mitosis), 0.515.

On to “MSLWGLVSKMPPEKVQRLYVDFPQHLRHLLGDWLESQPWEFLVGSDAFCCNLASALLSDTVQHLQASVGEQGEGSTILQHISTLESIYQRDPLKLVATFRQILQGEKKAVMEQFRHLPMPFHWKQEELKFKTGLRRLQHRVGEIHLLREALQKGAEAGQVSLHSLIETPANGTGPSEALAMLLQETTGELEAAKALVLKRIQIWKRQQQLAGNGAPFEESLAPLQERCESLVDIYSQLQQEVGAAGGELEPKTRASLTGRLDEVLRTLVTSCFLVEKQPPQVLKTQTKFQAGVRFLLGLRFLGAPAKPPLVRADMVTEKQARELSVPQGPGAGAESTGEIINNTVPLENSIPGNCCSALFKNLLLKKIKRCERKGTESVTEEKCAVLFSASFTLGPGKLPIQLQALSLPLVVIVHGNQDNNAKATILWDNAFSEMDRVPFVVAERVPWEKMCETLNLKFMAEVGTNRGLLPEHFLFLAQKIFNDNSLSMEAFQHRSVSWSQFNKEILLGRGFTFWQWFDGVLDLTKRCLRSYWSDRLIIGFISKQYVTSLLLNEPDGTFLLRFSDSEIGGITIAHVIRGQDGSPQIENIQPFSAKDLSIRSLGDRIRDLAQLKNLYPKKPKDEAFRSHYKPEQMGKDGRGYVPATIKMTVERDQPLPTPELQMPTMVPSYDLGMAPDSSMSMQLGPDMVPQVYPPHSHSIPPYQGLSPEESVNVLSAFQEPHLQMPPSLGQMSLPFDQPHPQGLLPCQPQEHAVSSPDPLLCSDVTMVEDSCLSQPVTAFPQGTWIGEDIFPPLLPPTEQDLTKLLLEGQGESGGGSLGAQPLLQPSHYGQSGISMSHMDLRANPSW [STAT6]”, for which the “solubility in G1/S (log2)” value in the data set with HeLa Kyoto [1] turned out to be 0.0515. For the same sequence, the melting temperature with HeLa Kyoto [2] (cell cycle stage: G1/S) was 48.4 °C; in the data set on HeLa Kyoto [2] (cell cycle stage: mitosis), 49.6 °C. In the data set with HeLa Kyoto [3], the “solubility change mitosis (log2)” value is -0.111. For the same sequence, the thermal stability score in the data set on HeLa Kyoto [4] (setting [5]) amounted to 0.798; with HeLa Kyoto [4] (cell cycle stage: mitosis), 2.24.
